This passage reports stoichiometry N results from publication PMC9772378.

The target of test [1] is Singapore16 N2 NA (head domain, residues 82-469) with VASP tetramerization domain (influenza A virus A/Singapore/INFIMH-16-0019/2016 (H3N2)). The test is described as follows: negative-stain electron microscopy.
Test [2] deals with Singapore16 N2 NA (head domain, residues 82-469) without VASP tetramerization domain (influenza A virus A/Singapore/INFIMH-16-0019/2016 (H3N2)). The test is described as follows: negative-stain electron microscopy.

In general, stoichiometry N refers to a count of units in the complex or per binding partner. Substance “Singapore16 N2 NA (head domain, residues 82-469) with VASP tetramerization domain (domain or fragment)” displayed a stoichiometry N in test [1] of 4.

Substance “Singapore16 N2 NA (head domain, residues 82-469) without VASP tetramerization domain (domain or fragment)” showed a stoichiometry N in test [2] of 4.
